Results on one molecule are retold here after US4885277A, “Anticoagulant therapy” (Oklahoma Medical Research Foundation, priority 1987, dated 1989).

For this test, the system named is endothelial cellular receptors for Factor IX (cultured bovine aortic endothelial cells). The test is described as follows: Competitive binding of [125I]-Factor IX to cultured bovine aortic endothelial cells. The following applies: cultured bovine aortic endothelial cells, 4-5 hours at 4° C.; mean, SEM less than 20%; read-out: Inhibitory Constant, inhibition of binding of [125I]-Factor IX. As to the method:
The purified peptides were tested for their ability to block the binding of bovine Factor IX and IXa to cultured bovine aortic endothelial cells. Bovine Factor IX and IXa for these studies were prepared and radioiodinated (using Na^125 I and the solid state lactoperoxidase technique) using methods described by Stern, et al. (J. Biol. Chem. 260, pp. 6717-6722 [1985]). Bovine aortic endothelial cells were obtained from the aortae of newborn calves as described by Stern, et al. (Proc. Natl. Acad. Sci. U.S.A., 80, pp. 4119-4123 [1983]). These endothelial cells were grown to confluence (1.3×10^5 cells/cm^2) in culture dishes. Binding assays were carried out by incubating either ^125 I-Factor IX or ^125 I-Factor IXa with endothelial cell monolayers in the presence of varying concentrations of one of the peptides. The buffer used in these experiments was Minimal Essential Medium containing 0.5 mg/ml transferring, and the incubation time was 4-5 hours at 4° C. At the end of the incubation period, the cultures were washed to remove unbound material. Then, specifically bound [^125 I]-Factor IX or [^125 I]-Factor IXa was eluted during exposure to EDTA-containing buffer as described by Stern, et al. (Proc. Natl. Acad. Sci. U.S.A., 80, pp. 4119-4123 [1983].

B1: Factor IX: bovine Factor IX, Vitamin K-dependent plasma glycoprotein, used as competitor (protein, UniProt P00741 26-462, looked up)
Coagulation factor IX: AECTVFLDRENATKILHRPKRYNSGKLEEFVRGNLERECKEEKCSFEEAREVFENTEKTTEFWKQYVDGDQCESNPCLNGGMCKDDINSYECWCQAGFEGTNCELDATCSIKNGRCKQFCKRDTDNKVVCSCTDGYRLAEDQKSCEPAVPFPCGRVSVSHISKKLTRAETIFSNTNYENSSEAEIIWDNVTQSNQSFDEFSRVVGGEDAERGQFPWQVLLHGEIAAFCGGSIVNEKWVVTAAHCIKPGVKITVVAGEHNTEKPEPTEQKRNVIRAIPYHSYNASINKYSHDIALLELDEPLELNSYVTPICIADRDYTNIFLKFGYGYVSGWGKVFNRGRSASILQYLKVPLVDRATCLRSTKFSIYSHMFCAGYHEGGKDSCQGDSGGPHVTEVEGTSFLTGIISWGEECAMKGKYGIYTKVSRYVNWIKEKTKLT
Take B1: the Ki is 3 nM.
